Source: patent US20090053180A1, “Tandem cardiac pacemaker system” (priority 2005, published 2009)
“Also recorded” adds a separate entry of the source.

Assays:
[1] = test system: cell-free patches from Xenopus oocytes; details: cited from earlier work
[2] = test system: dogs with complete AV block; assay: Tandem biological and electronic pacemakers in dogs with complete AV block (injection into left bundle branch); type: in vivo, dog
Method: Adult mongrel dogs weighing 22-25 kg were anesthetized with propofol 6 mg/kg IV and inhalational isoflurane (1.5%-2.5%). Using a steerable catheter, saline (n=5), AdmHCN2 (n=6) or AdmE324A (n=4) were injected into the left bundle branch (LBB) as described previously (Plotnikov et al., 2004). In 2 additional dogs AdmE324A was injected into the LV septal myocardium as an internal control. Complete AV block was induced via radiofrequency ablation and each site of injection was paced via catheter electrode to distinguish electrocardiographically the origin of the idioventricular rhythm during the follow up period.
An electronic pacemaker (Discovery II, Flextend lead; Guidant, Indianapolis, Ind.) was implanted and set at VVI 45 bpm. ECG, 24 hour Holter monitoring, pacemaker log record check, and overdrive pacing at 80 bpm were performed daily for 14 days. To evaluate beta-adrenergic responsiveness, on day 14, epinephrine (1.0, 1.5 and 2.0 μg/kg/min for up to 10 min each) was infused to an endpoint of a 50% increase in idioventricular rate or ventricular arrhythmia (single ventricular premature beats having a morphology other than that of the dominant idioventricular rhythm or ventricular tachycardia), whichever occurred first. If none of the above responses was observed within 10 min after onset of the maximal dose of 2 μg/kg/min, the infusion was terminated.
Data are presented as means±SEM. […] One-way ANOVA was used to evaluate the effect of an implanted construct on electrophysiological parameters. Subsequent analysis was performed using Bonferroni's test where equal variances were assumed and the Games-Howell test where variances were unequal. A two-way contingency table analysis was conducted to evaluate whether epinephrine had different effects across three groups. Data were analyzed using SPSS for Windows software (SPSS, Inc.). P<0.05 was considered to be significant.
Complete AV block was induced via radiofrequency ablation, and electronic pacemakers were implanted into the right ventricular apical endocardium and set a VV1 45 bpm. ECG and 24-h monitoring were performed daily for 14 days. Beta-adrenergic responsiveness was also evaluated as described above.
Escape time was evaluated daily by performing three 30-s periods of ventricular overdrive pacing at 80 bpm followed by an abrupt cessation of pacing. The average time between the final electronically paced beat and the first intrinsic beat was then determined. […] There was a different result with regard to basal heart rates throughout the 14-day period, however.

[3] = test system: newborn rat ventricular myocytes; assay: Whole-cell voltage clamp of expressed HCN current in newborn rat ventricular myocytes; type: cell-based; details: for V1/2 / s: fit of average data; for current density: measured at −135 mV
Method: Adult rats were anesthetized with ketamine-xylazine before cardiectomy, and neonatal rats decapitated. Newborn rat ventricular myocyte cultures were prepared as previously described (Protas and Robinson, 1999). Briefly, 1-2-day-old Wistar rats were euthanized, hearts were quickly removed and ventricles were dissociated using a standard trypsinization procedure. Myocytes were harvested, preplated to reduce fibroblast proliferation, cultured initially in serum-containing medium (except when being transfected with plasmids as described below), and then incubated in serum free medium (SFM) at 37° C., 5% CO2 after 24 h. Action potential studies were conducted on 4-day-old monolayer cultures plated directly onto fibronectin-coated 9×22 mm glass coverslips. For voltage clamp experiments, 4-6 day old monolayer cultures were resuspended by brief (2-3 min) exposure to 0.25% trypsin, then replated onto fibronectin-coated coverslips and studied within 2-8 h.
Adenoviral infection of the newborn ventricular myocytes was performed on cell monolayer cultures 4 days after initial plating. Cells were exposed to a virus-containing mix (m.o.i. 20, in 250 μl of culture medium) for 2 h, rinsed twice and incubated in SFM at 37° C., 5% CO2 for 24-48 hours prior to the cells being resuspended as described above for electrophysiological study.
The whole-cell patch clamp technique was employed to record mHCN2 current from cultured myocytes. Experiments were carried out on cells superfused at 35° C. The external solution contained (mM): NaCl, 140; NaOH, 2.3; MgCl2, 1; KCl, 10; CaCl2, 1; HEPES, 5; glucose, 10; pH 7.4. MnCl2 (2 mM) and BaCl2 (4 mM) were added to block other currents. The pipette solution contained (mM): aspartic acid, 130; KOH, 146; NaCl, 10; CaCl2, 2; EGTA-KOH, 5; Mg-ATP, 2; HEPES-KOH, 10; pH 7.2.
To measure the HCN activation curve, a standard two-step protocol was employed. Hyperpolarizing steps from −25 to −135 mV for mHCN2 and from −5 or −15 to −135 mV for mE324A were applied from a holding potential of −10 mV, followed by a tail current step (to −125 or −135 mV). The duration of test steps was longer at less hyperpolarized potential for mHCN2 channels, to more closely approach steady-state activation at all voltages. The normalized plot of tail current versus test voltage was fit with a Boltzmann function and then the voltage of half maximum activation (V1/2) and slope factor(s) were defined from the fitting. Activation kinetics were determined from the same traces, while deactivation kinetics were determined from traces recorded at each test potential after achieving full activation by a prepulse to −135 mV. Time constants were then obtained by fitting the early time course of activation or deactivation current traces with a monoexponential function; the initial delay and any late slow activation or deactivation phase were ignored (Qu et al., 2001; Altomare et al., 2001). Current densities are expressed as the value of the time-dependent component of current amplitude, measured at the end of the test potential and normalized to cell membrane capacitance. Records were not corrected for liquid junction potential, which was previously determined to be 9.8 mV under these conditions (Qu et al., 2001).

Xenopus oocytes = assay: Two-microelectrode voltage clamp of expressed HCN current in Xenopus oocytes; type: cell-based, Xenopus laevis
[4] = test system: canine proximal LV conducting system; details: sinus rhythm suppressed by vagal stimulation; cited from earlier work
[5] = 10 μM cAMP in the pipette solution

B1: mHCN2: mouse HCN2 pacemaker ion channel (GenBank AJ225122), expressed from plasmid, cRNA or adenoviral construct AdmHCN2 (protein, UniProt O88703 1-863, looked up)
Potassium/sodium …: MDARGGGGRPGDSPGTTPAPGPPPPPPPPAPPQPQPPPAPPPNPTTPSHPESADEPGPRARLCSRDSACTPGAAKGGANGECGRGEPQCSPEGPARGPKVSFSCRGAASGPSAAEEAGSEEAGPAGEPRGSQASFLQRQFGALLQPGVNKFSLRMFGSQKAVEREQERVKSAGAWIIHPYSDFRFYWDFTMLLFMVGNLIIIPVGITFFKDETTAPWIVFNVVSDTFFLMDLVLNFRTGIVIEDNTEIILDPEKIKKKYLRTWFVVDFVSSIPVDYIFLIVEKGIDSEVYKTARALRIVRFTKILSLLRLLRLSRLIRYIHQWEEIFHMTYDLASAVMRICNLISMMLLLCHWDGCLQFLVPMLQDFPSDCWVSINNMVNHSWSELYSFALFKAMSHMLCIGYGRQAPESMTDIWLTMLSMIVGATCYAMFIGHATALIQSLDSSRRQYQEKYKQVEQYMSFHKLPADFRQKIHDYYEHRYQGKMFDEDSILGELNGPLREEIVNFNCRKLVASMPLFANADPNFVTAMLTKLKFEVFQPGDYIIREGTIGKKMYFIQHGVVSVLTKGNKEMKLSDGSYFGEICLLTRGRRTASVRADTYCRLYSLSVDNFNEVLEEYPMMRRAFETVAIDRLDRIGKKNSILLHKVQHDLSSGVFNNQENAIIQEIVKYDREMVQQAELGQRVGLFPPPPPPQVTSAIATLQQAVAMSFCPQVARPLVGPLALGSPRLVRRAPPGPLPPAASPGPPAASPPAAPSSPRAPRTSPYGVPGSPATRVGPALPARRLSRASRPLSASQPSLPHGVPAPSPAASARPASSSTPRLGPAPTARTAAPSPDRRDSASPGAASGLDPLDSARSRLSSNL
shift of activation curve to more positive potentials by cAMP [1]: 17 mV
share of animals with 50% or more increase that required the highest dose of epinephrine ([2]; 2 μg/kg/min): 33%
beats triggered by the electronic pacemaker, of all beats ([2]; 14 days, electronic pacemaker set at VVI 45 bpm): 26±6%
arrhythmias during epinephrine infusion ([2]; day 14): two animals developed ventricular arrhythmias
mean basal heart rate compared with saline group ([2]; days 1-7 and 8-14): significantly faster
animals with less than a 50% increase in rate ([2]; epinephrine 1.0, 1.5, 2.0 μg/kg/min, day 14): 50%
control rate prior to epinephrine ([2]; representative animal, day 14): 44 bpm
rate with epinephrine ([2]; representative animal, epinephrine 1 μg/kg/min): 60 bpm
shift of V1/2 by cAMP [3, 5]: 9.7 mV
percentage of myocytes expressing current ([3]; 6 matched cell cultures): 74.5%
midpoint of activation ([3]; HCN2 virus characterized in neonatal rat myocytes): −69.3 mV
activation τ ([3]; at −65 mV): 639 ± 72 ms
V1/2 [3, 5]: −59.9 mV
s [3, 5]: 11.0 mV
V1/2 ([3]; absence of cAMP): −69.6 mV
s ([3]; absence of cAMP): 10.8 mV
slope factor s ([3]; mean of individual Boltzmann fits): 10.7±0.5 mV
V1/2 (voltage of half maximum activation) ([3]; mean of individual Boltzmann fits, adenoviral infection): −66.1±1.5 mV
current density [3]: 53.5±8.7 pA/pF
current density ([3]; listed as HCN2): 53.5±8.3 pA/pF
activation more negative than mE324A (Xenopus oocytes): 35 mV
effect of Cs+ on inward current (Xenopus oocytes; 5 mM Cs+): blocked; also recorded: large inhibition
rate of idioventricular rhythms [4]: 50-60 bpm
